# Measurements reported in PMC12483278, “The viral BCL2 protein BHRF1 of Epstein–Barr virus promotes AIM2 inflammasome activation to facilitate lytic replication” (PLOS Pathogens, 2025).
# T1: GST-AIM2 full-length (UniProt O14862 1-343)
# T1 construct: also called GST-AIM2 WT; GST-tagged AIM2; source: HEK293T, transfected, in lysate
# T1 sequence (looked up): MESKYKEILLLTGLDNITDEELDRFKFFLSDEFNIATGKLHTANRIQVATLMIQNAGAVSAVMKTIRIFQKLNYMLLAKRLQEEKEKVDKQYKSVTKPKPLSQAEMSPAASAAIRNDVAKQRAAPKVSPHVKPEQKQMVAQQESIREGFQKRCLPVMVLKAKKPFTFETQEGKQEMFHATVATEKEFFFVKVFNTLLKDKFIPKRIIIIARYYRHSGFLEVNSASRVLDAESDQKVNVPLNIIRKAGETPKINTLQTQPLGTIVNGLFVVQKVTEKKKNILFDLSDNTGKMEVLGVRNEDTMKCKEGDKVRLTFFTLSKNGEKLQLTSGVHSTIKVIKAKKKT
# Target: T1, GST-AIM2 full-length
# Experiment: pull-down; purified GST-AIM2, Flag-ASC-His and GFP-BHRF1-His mixed and incubated in the absence or presence of purified HSV-1 dsDNA overnight at 4 °C; GST-affinity beads, western blotting
# Conditions: both partners purified
binder,measurement,value
"GFP-BHRF1-His (natural protein, also called purified BHRF1 protein) MAYSTREILLALCIRDSRVHGNGTLHPVLELAARETPLRLSPEDTVVLRYHVLLEEIIERNSETFTETWNRFITHTEHVDLDFNSVFLEIFHRGDPSLGRALAWMAWCMHACRTLCCNQSTPYYVVDLSVRGMLEASEGLDGWIHQQGGWSTLIEDNIPGSRRFSWTLFLAGLTLSLLVICSYLFISRGRH",binding result,binds
